Several values for one entry are separate records, joined by “and”; a condition that tells them apart may be missing. Equal entries are not always repeated.
Tests used:
[1] = test system: FaDu human head and neck cancer xenograft; assay: Xenograft model of anti-NTSR1 ADCs (head and neck cancer); format: in vivo, male NOD SCID mice; settings: for FaDu tumor growth: 5 mg/kg, Day 10 to Day 17
Protocol: The aim of this study was to evaluate the in vivo anti-tumor efficacy of αNTSR1 (AKT2) 4seco-DUBA, αNTSR1 (AKT2 Hu/Hu) 4seco-DUBA, and αNTSR1 (AKT2 Hu/Hd) 4seco-DUBA in FaDu human head and neck cancer xenograft model in male NOD SCID mice.
Formulations respectively comprising test article αNTSR1 (AKT2) 4seco-DUBA, test article αNTSR1 (AKT2 Hu/Hu) 4seco-DUBA, test article αNTSR1 (AKT2 Hu/Hd) 4seco-DUBA, and Hu IgG were formulated by diluting the stock with a 25 mM sodium citrate buffer (pH 6.5). […]
The FaDu cells were maintained in vitro as a monolayer culture in RPMI-1640 medium supplemented with 10% fetal bovine serum at 37° C. in an atmosphere of 5% CO2 in air. The tumor cells were routinely sub-cultured twice weekly by trypsin-EDTA treatment. The cells growing in an exponential growth phase were harvested and counted for tumor inoculation.
Male NOD SCID mice at age of 6-7 weeks were quarantined for one week. Five mice were housed in each cage. All animals were hosted in the animal facility with a 12-h light/12-h dark cycle at 19-25° C. Animals had free access to rodent pellet foods and water ad libitum.
FaDu cells were subcutaneously (SC) implanted (4×10^6 cells in 1:1 PBS/matrigel mixture at 0.1 mL per mouse) into the right flank of male NOD SCID mice. When the average tumor volume had reached about 200 mm^3, the mice were randomly divided into 7 groups (N=6 per group). Each of Hu IgG, αNTSR1 (AKT2) 4seco-DUBA (5 mg/kg), αNTSR1 (AKT2 Hu/Hu) 4seco-DUBA (5 mg/kg), and αNTSR1 (AKT2 Hu/Hd) 4seco-DUBA (5 mg/kg) was intravenously administered twice weekly for 3 weeks.
The tumor volumes, body weights, mortality, and signs of overt toxicity were monitored and recorded three times weekly for 28 days. Tumor volumes (mm^3) were measured three times per week using calipers and calculated according to the formula: Tumor Volume=(w^2×l)/2, where w=width and l=length in diameter (mm) of the tumor. The percentages of tumor growth inhibition (TGI) were calculated using the following formula: % TGI=[1−(T/C)]×100%, where T and C represent the mean tumor volumes of the treatment group and the control group, respectively. A TGI (%) value≥58% was considered as indicating significant anti-tumor activity. Animals were weighed three times weekly until the completion of the study.

NTSR1 protein = NTSR1 protein (Homo sapiens, UniProt P30989); assay: SPR (BIACORE T200) multi-cycle kinetic assay; settings: 25° C., one-to-one Langmuir binding model
Protocol: To know the binding kinetics differences among individual anti-NTSR1 antibodies, surface plasmon resonance (SPR) measurement with BIACORE™ T200 (CYTIVA® Inc.) was used as previously described (Karlsson & Falt, (1997) J. Immunol Methods 200:121-133). Carboxymethylated dextran biosensor chips (CM5, CYTIVA® Inc.) were activated with N-ethyl-N′-(3-dimethylaminopropyl)-carbodiimide hydrochloride (EDC) and N-hydroxysuccinimide (NHS) according to the supplier's instructions. NTSR1 protein was diluted with 10 mM sodium acetate, pH 4.0, into 5 μg/ml before injection at a flow rate of 10 μL/minute to achieve approximately 1500 response units (RU) of coupled protein followed by the injection of 1 M ethanolamine to block unreacted groups. For kinetics measurements, two-fold serial dilutions of anti-NTSR1 mAb (0.3125 nM to 40 nM) were injected in HBS-EP+BIACORET™ running buffer provided by the manufacturer (CYTIVA® Inc.) at 25° C. at a flow rate of 30 μL/min, and binding responses on the NTSR1 protein were corrected by subtraction of responses on a blank flow cell. Association rates (kon or Ka) and dissociation rates (koff or Kd) were calculated using a simple one-to-one Langmuir binding model with separate fittings of kon and koff. (CYTIVA® BIACORET™ Insight Evaluation Software).

[2] = In vivo pharmacokinetic analysis (MSD ECL total antibody assay); settings: BALB/c mice, 5 mg/kg via the tail vein; for MRT / Vss / t½: total antibody; for in vivo half live: 5 mg/kg
Excerpt: This Example used Meso Scale Discovery (MSD) Electrochemiluminescent (ECL) method to conduct the PK analysis of the anti-NTSR1 antibodies αNTSR1 (AKT2), αNTSR1 (AKT2 Hu/Hu) and αNTSR1 (AKT2 Hu/Hd) in BALB/c mice samples. The MSD assay can measure both conjugated and unconjugated antibodies. As illustrated in this example, for total antibody assay (including conjugated and unconjugated antibodies), the plate is coated with goat anti-human IgG, which can capture all humanized antibodies (conjugated and unconjugated).
The mice were administered at a dose level of 5 mg/kg via the tail vein. Blood samples were then obtained at different time points for determining the concentrations of αNTSR1 (AKT2), αNTSR1 (AKT2 Hu/Hu) and αNTSR1 (AKT2 Hu/Hd) in mice by MESO QuickPlex SQ 120 method. The PK parameters of αNTSR1 (AKT2), αNTSR1 (AKT2 Hu/Hu) and αNTSR1 (AKT2 Hu/Hd) were analyzed by noncompartmental analysis using PHOENIX™ for WinNonlin Program, version 6.3.

FaDu cells = assay: In vitro cytotoxicity study (CELLTITER-GLO); format: cell-based, human; settings: 72 hours treatment, cell viability, read-out: Relative IC50
Protocol: Human head and neck cancer cell line FaDu was respectively grown in RPMI-1640 medium (ATCC® modification) supplemented with 10% fetal bovine serum. The FaDu cell lines were maintained in an atmosphere of 5% CO2 in a humidified 37° C. incubator. The day before treatment, cells were collected and seeded into 96-well plates (4,000 cells per well). Each treatment was performed in eight triplicate data points. After the treatment of 72 hours, cell viability was assessed by CELLTITER-GLO® kit (PROMEGA®) according to the manufacturer's instruction. At the end of the incubation, luminescence was measured using a SpectraMax i3x Multi Mode Detection Platform (MOLECULAR DEVICES®). Compound cytotoxicity was evaluated in comparison to cells treated with 0.05% PBS (ADCs) or 0.05% DMSO (toxic payload). IC50 values were calculated by fitting viability data with a four-parameter logistic equation using GRAPHPAD® prism 5.0 software.

NTSR1 protein, sequence (P30989 whole entry): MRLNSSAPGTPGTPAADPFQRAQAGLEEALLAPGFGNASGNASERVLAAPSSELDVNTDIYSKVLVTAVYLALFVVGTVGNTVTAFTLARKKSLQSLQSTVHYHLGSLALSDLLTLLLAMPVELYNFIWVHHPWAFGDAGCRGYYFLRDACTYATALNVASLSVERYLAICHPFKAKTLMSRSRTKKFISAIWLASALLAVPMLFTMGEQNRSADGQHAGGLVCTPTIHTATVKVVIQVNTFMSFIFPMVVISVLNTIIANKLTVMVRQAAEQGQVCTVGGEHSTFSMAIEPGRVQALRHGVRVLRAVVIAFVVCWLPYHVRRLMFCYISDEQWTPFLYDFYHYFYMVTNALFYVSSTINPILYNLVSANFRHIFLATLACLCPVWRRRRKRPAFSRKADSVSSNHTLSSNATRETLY

Row | Molecule | TGI % (1-T/C) Day 0 ([1]; 5 mpk, IV, BIW × 3) | TGI % (1-T/C) Day 5 ([1]; 5 mpk, IV, BIW × 3) | TGI % (1-T/C) Day 7 ([1]; 5 mpk, IV, BIW × 3) | TGI % (1-T/C) Day 10 ([1]; 5 mpk, IV, BIW × 3) | TGI % (1-T/C) Day 12 ([1]; 5 mpk, IV, BIW × 3) | TGI % (1-T/C) Day 14 ([1]; 5 mpk, IV, BIW × 3) | TGI % (1-T/C) Day 17 ([1]; 5 mpk, IV, BIW × 3) | Ka (kon, association rate) (NTSR1 protein) | Kd (koff, dissociation rate) (NTSR1 protein) | MRT [2] | Vss [2] | t½ [2] | in vivo half live ([2]; listed as αNTSR1 (AKT2)) | FaDu tumor growth [1] | IC50 (FaDu cells) | TGI % (1-T/C) Day 3 ([1]; 5 mpk, IV, BIW × 3, Day 3) | in vivo half live ([2]; listed as αNTSR1 (AKT2 Hu/Hu)) | in vivo half live ([2]; listed as αNTSR1 (AKT2 Hu/Hd))
1 | AKT2: affinity-matured mouse-human chimera anti-NTSR1 antibody, AKT2 VH (SEQ ID NO: 9) and AKT2 VL (SEQ ID NO: 10) (antibody, V domains shown) VH: QVQLQQPGSVLVRPGASVKLSCKASGYAFTSSWIHWAKQRPGQGLEWIGQIRPNSGNTYYNEKFKVKATLTVDTSSSTAYVDLSSLTSEDSAVYYCARYHYGFDYWGQGTLVTVSS VL: DVLMTQTPLSLPVSLGDQASISCRSSQSIVHSNGNTYLEWYLQKPGQSPKLLIYKVSNRFSGVPDRFSGSGSGTDFTLKISRVEAEDLGVYYCFQGAHLPWTFGGGTKLEIK | 0.0% | 11.1% | 34.8% | 31.0% | 31.1% | 29.9% | 21.6% | 406800 M⁻¹ s⁻¹ | 0.0006558 s⁻¹ | 89.6 ± 6.6 h | 0.159 ± 0.010 L/kg | 71.7 ± 5.1^ h | 71.7 ± 5.1 h and 71 h |  |  |  |  | 
2 | αNTSR1 (AKT2) 4seco-DUBA: antibody-drug conjugate of chimera antibody AKT2 with seco-DUBA payload (conjugate) heavy chain: QVQLQQPGSVLVRPGASVKLSCKASGYAFTSSWIHWAKQRPGQGLEWIGQIRPNSGNTYYNEKFKVKATLTVDTSSSTAYVDLSSLTSEDSAVYYCARYHYGFDYWGQGTLVTVSS light chain: DVLMTQTPLSLPVSLGDQASISCRSSQSIVHSNGNTYLEWYLQKPGQSPKLLIYKVSNRFSGVPDRFSGSGSGTDFTLKISRVEAEDLGVYYCFQGAHLPWTFGGGTKLEIK | 0.0% | 28.5% | 54.4% | 68.5% | 83.8% | 90.5% | 95.3% |  |  |  |  |  |  | significantly reduced FaDu tumor growth | 36.9 nM |  |  | 
3 | AKT2 HuHu: humanized anti-NTSR1 antibody, AKT2 HuVH (SEQ ID NO: 16) and AKT2 HuVL (SEQ ID NO: 17) (antibody, V domains shown) VH: QVQLVQSGAEVKKPGASVKVSCKASGYAFTSSWIHWVRQAPGQGLEWMGQIRPNSGNTYYNEKFKVRVTMTRDTSTSTVYMELSSLRSEDTAVYYCARYHYGFDYWGQGTLVTVSS VL: DIVMTQTPLSLSVTPGQPASISCRSSQSIVHSNGNTYLEWYLQKPGQSPQLLIYKVSNRFSGVPDRFSGSGSGTDFTLKISRVEAEDVGVYYCFQGAHLPWTFGQGTKVEIK | 0.0% | 33.4% | 37.3% | 13.4% | 6.7% | 25.6% | 26.9% | 787700 M⁻¹ s⁻¹ | 0.0008084 s⁻¹ | 252 ± 116 h | 0.120 ± 0.026 L/kg | 182 ± 90.8 h |  |  |  | 17.7% | 182 ± 90.8 h | 
4 | AKT2 HuHd: humanized anti-NTSR1 antibody, AKT2 HuVH (SEQ ID NO: 16) and AKT2 HdVL (SEQ ID NO: 15) (antibody, V domains shown) VH: QVQLVQSGAEVKKPGASVKVSCKASGYAFTSSWIHWVRQAPGQGLEWMGQIRPNSGNTYYNEKFKVRVTMTRDTSTSTVYMELSSLRSEDTAVYYCARYHYGFDYWGQGTLVTVSS VL: DIQMTQSPSSLSASVGDRVTITCRSSQSIVHSNGNTYLEWYQQKPGKAPKLLIYKVSNRFSGVPSRFSGSGSGTDFTLTISSLQPEDFATYYCFQGAHLPWTFGQGTKVEIK | 0.0% | 13.1% | 28.4% | 36.2% | 40.9% | 37.8% | 32.5% | 461400 M⁻¹ s⁻¹ | 0.0006575 s⁻¹ | 209 ± 62.5 h | 0.135 ± 0.020 L/kg | 156 ± 48.6 h |  |  |  |  |  | 156 ± 48.6 h
5 | αNTSR1 (AKT2 Hu/Hu) 4seco-DUBA: antibody-drug conjugate of humanized antibody AKT2 HuHu with seco-DUBA payload (conjugate) heavy chain: QVQLVQSGAEVKKPGASVKVSCKASGYAFTSSWIHWVRQAPGQGLEWMGQIRPNSGNTYYNEKFKVRVTMTRDTSTSTVYMELSSLRSEDTAVYYCARYHYGFDYWGQGTLVTVSS light chain: DIVMTQTPLSLSVTPGQPASISCRSSQSIVHSNGNTYLEWYLQKPGQSPQLLIYKVSNRFSGVPDRFSGSGSGTDFTLKISRVEAEDVGVYYCFQGAHLPWTFGQGTKVEIK | 0.0% | 17.5% | 47.2% | 65.4% | 72.2% | 83.8% | 90.8% |  |  |  |  |  |  | significantly reduced FaDu tumor growth | 12.5 nM |  |  | 
